The target in this assay is HCV E2 antigen (HCV genotype 1b) (hepatitis C virus genotype 1b).

The term IC50 denotes the concentration needed to halve the response being measured. Read a low IC50 as greater potency in that assay.

B1: Fab molecule clone 1:11 (Fab, V domains shown)
VH: VQLLEQSGAEVKKPGSSVKVSCKASGGTFSGHVISWVRQAPGQGLEWMGGSISFFGTSNSAQKFQGRVSITADESASTAYMELSSLRSEDTAIYYCAKDPPRFCSGGNCYPGFFQQWGQGTLVTVSS
VL: AELTQSPGTLSLSPGERATLSCGASQSVRSNYLAWYQQKPGQAPRLLIYGVSSRATGIPDRFSGSGSGTDFTLTISRLEPEDFAVYYCQQYGSSPRTFGQGTKLEIK
Consider B1, for which the IC50 amounted to 0.15 µg/mL.
